In paper PMC5669894 (2017):
Like-named read-outs stand apart in the source and are kept apart here.

Tests used:
[1] = target: T1, C-terminal SH3 domain of the growth factor receptor-bound protein 2 (Grb2) (UniProt P62993 158-211)
[2] = target: T1, C-terminal SH3 domain of the growth …; remark: listed apart in the source
[3] = target: T1, C-terminal SH3 domain of the growth …; remark: listed apart in the source

T1 sequence (P62993 156-215): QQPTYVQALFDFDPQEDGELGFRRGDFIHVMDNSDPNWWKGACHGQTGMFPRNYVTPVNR

For SRGSEIQPPAVNRNLKPDRKAK [Gab2 503-524 peptide, variant P512A], the koff [1] was 90 s⁻¹.

Binder SRGSEIQAPPVNRNLKPDRKAK [Gab2 503-524 peptide, variant P510A] has a koff [2] of 100 s⁻¹.

With SRGSEIQPPPVNRNLKADRKAK [Gab2 503-524 peptide, variant P519A] the koff [3] was 250 s⁻¹.
